{"source": "patent US20240343835A1", "about": "“COVALENT HETEROBIVALENT ANTIBODY INHIBITORS AND LIGANDS” (UNIVERSITY OF NOTRE DAME DU LAC, priority 2015, published 2024)", "key": {"[1]": {"molecular_target": "Trastuzumab (anti-HER2/neu IgG)", "experiment": "method not stated in the legend"}, "[2]": {"molecular_target": "Trastuzumab (anti-HER2/neu IgG)", "experiment": "fluorescence quenching: ligand titrated into trastuzumab, F/F0 against Ligand (nM)"}, "[3]": {"molecular_target": "Trastuzumab (anti-HER2/neu IgG)", "experiment": "fluorescence quenching"}, "[4]": {"molecular_target": "Trastuzumab (anti-HER2/neu IgG)", "experiment": "fluorescence quenching, ligand titrated into 30 nM trastuzumab; apparent Kd"}, "[5]": {"molecular_target": "Trastuzumab (anti-HER2/neu IgG)", "experiment": "flow cytometry on HER2-expressing cells, FITC signal of cHBL-tagged trastuzumab"}, "[6]": {"molecular_target": "Trastuzumab (anti-HER2/neu IgG)", "experiment": "fluorescence quenching, ligand titrated into 30 nM trastuzumab"}}, "note": "Ends that are not written are not given here."}
{"binder": "LLGPYELWELSH", "note": "[Trastuzumab binding peptide …]", "values": [{"measurement": "Kd", "setting": "[1]", "result": 1200, "unit": "nM"}]}
{"binder": "LLGPYELWELSH (also: DNP attached via EG2 spacer, 2-naphthaleneacetic acid attached via ethylene glycol spacer, attachment sites not given here)", "note": "[Trast-Napht-DNP]", "values": [{"measurement": "EC50 (read off the curve)", "setting": "[2]", "result": 50, "unit": "nM"}, {"measurement": "fold increase in observed affinity against the peptide without napht", "setting": "[3]", "result": "> 4", "unit": "fold"}, {"measurement": "Kd", "setting": "[4]", "result": 46.6, "unit": "nM"}]}
{"binder": "LLGPYELWELSH (also: 5(6)-carboxyfluorescein via EG2 spacer, EG6x2 spacer on peptide, branching Lys with 2-naphthaleneacetic acid on alpha-amine and EG4-isothiocyanate on epsilon-amine, attachment sites not given here)", "note": "[Trast-cHBL (Peptide-…)]", "values": [{"measurement": "percent of maximum FITC signal at 1 µM cHBL", "setting": "[5]", "result": 50, "unit": "%"}]}
{"binder": "LLGPYELWELSH (not fully specified (C-terminus); also: DNP attached via EG2 spacer, attachment site not given here)", "note": "[Trast-DNP (Trastuzumab binding peptide tagged with DNP)]", "values": [{"measurement": "EC50 (read off the curve)", "setting": "[2]", "result": 200, "unit": "nM"}, {"measurement": "Kd", "setting": "[6]", "result": 200, "unit": "nM"}]}
